Values belong to the binder of their own block, whether it stands above or below them.
Experiments:
Peptide_046 [1] = biological target: T1, Peptide_046 (human); test: peptide microarray, 0.2 ug/mL
T1 construct: 15-mer of hTrx1 on microarray
T1 peptide: ATWCGPCKMIKPFFH
Experimental: (§1) 5, 1, 0.2, 0.04, 0.008 and 0.0016 μg/mL serial dilutions were incubated on a single multi-well microarray slide at 30° C. for 1 hour. The slide includes 21 individual mini-arrays (one mini-array per sample dilution).
(§2) DyLight 650 was used as a label. False-positive binding to a peptide was evaluated by performing one additional control incubation in which only a secondary antibody was applied on the same microarray slide. Before performing each step, the microarrays were washed with a washing buffer.

Peptide_048 [2] = biological target: T2, Peptide_048 (human); test: peptide microarray, 0.2 ug/mL
T2 construct: 15-mer of hTrx1 on microarray
T2 peptide: WCGPCKMIKPFFHSL
Experimental: as §1, §2

Peptide_049 [3] = biological target: T3, Peptide_049 (human); test: peptide microarray, 0.2 ug/mL
T3 construct: 15-mer of hTrx1 on microarray
T3 peptide: CGPCKMIKPFFHSLS
Experimental: as §1, §2

Peptide_055 [4] = biological target: T4, Peptide_055 (human); test: peptide microarray, 0.2 ug/mL
T4 construct: 15-mer of hTrx1 on microarray
T4 peptide: IKPFFHSLSEKYSNV
Experimental: as §1, §2

Peptide_050 [5] = biological target: T5, Peptide_050 (human); test: peptide microarray, 0.2 ug/mL
T5 construct: 15-mer of hTrx1 on microarray
T5 peptide: GPCKMIKPFFHSLSE
Experimental: as §1, §2

Peptide_056 [6] = biological target: T6, Peptide_056 (human); test: peptide microarray, 0.2 ug/mL
T6 construct: 15-mer of hTrx1 on microarray
T6 peptide: KPFFHSLSEKYSNVI
Experimental: as §1, §2

Peptide_052 [7] = biological target: T7, Peptide_052 (human); test: peptide microarray, 0.2 ug/mL
T7 construct: 15-mer of hTrx1 on microarray
T7 peptide: CKMIKPFFHSLSEKY
Experimental: as §1, §2

Peptide_053 [8] = biological target: T8, Peptide_053 (human); test: peptide microarray, 0.2 ug/mL
T8 construct: 15-mer of hTrx1 on microarray
T8 peptide: KMIKPFFHSLSEKYS
Experimental: as §1, §2

Peptide_057 [9] = biological target: T9, Peptide_057 (human); test: peptide microarray, 0.2 ug/mL
T9 construct: 15-mer of hTrx1 on microarray
T9 peptide: PFFHSLSEKYSNVIF
Experimental: as §1, §2

Peptide_054 [10] = biological target: T10, Peptide_054 (human); test: peptide microarray, 0.2 ug/mL
T10 construct: 15-mer of hTrx1 on microarray
T10 peptide: MIKPFFHSLSEKYSN
Experimental: as §1, §2

Peptide_047 [11] = biological target: T11, Peptide_047 (human); test: peptide microarray, 0.2 ug/mL
T11 construct: 15-mer of hTrx1 on microarray
T11 peptide: TWCGPCKMIKPFFHS
Experimental: as §1, §2

[12] = biological target: T12, human thioredoxin-1 (Trx1) (human, UniProt P10599 1-105); test: ELISA on 200 ng coated hTrx1
T12 construct: also called hTrx1; hTRX1
T12 sequence (looked up): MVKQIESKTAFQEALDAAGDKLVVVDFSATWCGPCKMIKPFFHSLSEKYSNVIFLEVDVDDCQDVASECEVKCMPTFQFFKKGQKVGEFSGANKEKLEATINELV
Experimental: A reaction solution was removed, followed by washing five times with 200 μL of 1×PBST. […] A reaction solution was removed, and washed five times with 200 μL of 1×PBST. 100 μL of a color reagent was dispensed into each well, and after a 10-minute reaction, 50 μL of 2.5M H₂SO₄ was dispensed into each well. After color development, the extent of the color development was assessed using an ELISA reader.

Peptide_046 [13] = biological target: T1, Peptide_046; test: peptide microarray, 1 ug/mL
Experimental: as §1, §2

Peptide_048 [14] = biological target: T2, Peptide_048; test: peptide microarray, 1 ug/mL
Experimental: as §1, §2

Peptide_049 [15] = biological target: T3, Peptide_049; test: peptide microarray, 1 ug/mL
Experimental: as §1, §2

Peptide_055 [16] = biological target: T4, Peptide_055; test: peptide microarray, 1 ug/mL
Experimental: as §1, §2

Peptide_050 [17] = biological target: T5, Peptide_050; test: peptide microarray, 1 ug/mL
Experimental: as §1, §2

Peptide_056 [18] = biological target: T6, Peptide_056; test: peptide microarray, 1 ug/mL
Experimental: as §1, §2

Peptide_052 [19] = biological target: T7, Peptide_052; test: peptide microarray, 1 ug/mL
Experimental: as §1, §2

Peptide_053 [20] = biological target: T8, Peptide_053; test: peptide microarray, 1 ug/mL
Experimental: as §1, §2

Peptide_057 [21] = biological target: T9, Peptide_057; test: peptide microarray, 1 ug/mL
Experimental: as §1, §2

Peptide_054 [22] = biological target: T10, Peptide_054; test: peptide microarray, 1 ug/mL
Experimental: as §1, §2

Peptide_047 [23] = biological target: T11, Peptide_047; test: peptide microarray, 1 ug/mL
Experimental: as §1, §2

Peptide_046 [24] = biological target: T1, Peptide_046; test: peptide microarray, 0.04 ug/mL
Experimental: as §1, §2

Peptide_048 [25] = biological target: T2, Peptide_048; test: peptide microarray, 0.04 ug/mL
Experimental: as §1, §2

Peptide_049 [26] = biological target: T3, Peptide_049; test: peptide microarray, 0.04 ug/mL
Experimental: as §1, §2

Peptide_055 [27] = biological target: T4, Peptide_055; test: peptide microarray, 0.04 ug/mL
Experimental: as §1, §2

Peptide_050 [28] = biological target: T5, Peptide_050; test: peptide microarray, 0.04 ug/mL
Experimental: as §1, §2

Peptide_056 [29] = biological target: T6, Peptide_056; test: peptide microarray, 0.04 ug/mL
Experimental: as §1, §2

Peptide_052 [30] = biological target: T7, Peptide_052; test: peptide microarray, 0.04 ug/mL
Experimental: as §1, §2

Peptide_053 [31] = biological target: T8, Peptide_053; test: peptide microarray, 0.04 ug/mL
Experimental: as §1, §2

Peptide_057 [32] = biological target: T9, Peptide_057; test: peptide microarray, 0.04 ug/mL
Experimental: as §1, §2

Peptide_054 [33] = biological target: T10, Peptide_054; test: peptide microarray, 0.04 ug/mL
Experimental: as §1, §2

Peptide_047 [34] = biological target: T11, Peptide_047; test: peptide microarray, 0.04 ug/mL
Experimental: as §1, §2

Peptide_046 [35] = biological target: T1, Peptide_046; test: peptide microarray, 0.0016 ug/mL
Experimental: as §1, §2

Peptide_048 [36] = biological target: T2, Peptide_048; test: peptide microarray, 0.0016 ug/mL
Experimental: as §1, §2

Peptide_049 [37] = biological target: T3, Peptide_049; test: peptide microarray, 0.0016 ug/mL
Experimental: as §1, §2

Peptide_055 [38] = biological target: T4, Peptide_055; test: peptide microarray, 0.0016 ug/mL
Experimental: as §1, §2

Peptide_050 [39] = biological target: T5, Peptide_050; test: peptide microarray, 0.0016 ug/mL
Experimental: as §1, §2

Peptide_056 [40] = biological target: T6, Peptide_056; test: peptide microarray, 0.0016 ug/mL
Experimental: as §1, §2

Peptide_053 [41] = biological target: T8, Peptide_053; test: peptide microarray, 0.0016 ug/mL
Experimental: as §1, §2

signal (blank-control = 1) (Peptide_046 [1]): 3.44
signal (blank-control = 1) (Peptide_048 [2]): 4.61
signal (blank-control = 1) (Peptide_049 [3]): 1.34
signal (blank-control = 1) (Peptide_055 [4]): 2.21
signal (blank-control = 1) (Peptide_050 [5]): 0.46
signal (blank-control = 1) (Peptide_056 [6]): 1.72
signal (blank-control = 1) (Peptide_052 [7]): 2.56
signal (blank-control = 1) (Peptide_053 [8]): 4.75
signal (blank-control = 1) (Peptide_057 [9]): 2.08
signal (blank-control = 1) (Peptide_054 [10]): 0.89
signal (blank-control = 1) (Peptide_047 [11]): 2.52
Kd [12]: 0.17 nM
reaction value (OD 490) relative to B266-1 [12]: ~50%
signal (blank-control = 1) (Peptide_046 [13]): 5.62
signal (blank-control = 1) (Peptide_048 [14]): 3.91
signal (blank-control = 1) (Peptide_049 [15]): 1.2
signal (blank-control = 1) (Peptide_055 [16]): 3.26
signal (blank-control = 1) (Peptide_050 [17]): 0.47
signal (blank-control = 1) (Peptide_056 [18]): 2.58
signal (blank-control = 1) (Peptide_052 [19]): 4.43
signal (blank-control = 1) (Peptide_053 [20]): 8.52
signal (blank-control = 1) (Peptide_057 [21]): 2.19
signal (blank-control = 1) (Peptide_054 [22]): 1.43
signal (blank-control = 1) (Peptide_047 [23]): 4.07
signal (blank-control = 1) (Peptide_046 [24]): 2.87
signal (blank-control = 1) (Peptide_048 [25]): 6.34
signal (blank-control = 1) (Peptide_049 [26]): 1.48
signal (blank-control = 1) (Peptide_055 [27]): 1.51
signal (blank-control = 1) (Peptide_050 [28]): 0.64
signal (blank-control = 1) (Peptide_056 [29]): 1.35
signal (blank-control = 1) (Peptide_052 [30]): 2.02
signal (blank-control = 1) (Peptide_053 [31]): 2.54
signal (blank-control = 1) (Peptide_057 [32]): 2.15
signal (blank-control = 1) (Peptide_054 [33]): 0.99
signal (blank-control = 1) (Peptide_047 [34]): 1.97
signal (blank-control = 1) (Peptide_046 [35]): 1.69
signal (blank-control = 1) (Peptide_048 [36]): 7.46
signal (blank-control = 1) (Peptide_049 [37]): 1.18
signal (blank-control = 1) (Peptide_055 [38]): 0.81
signal (blank-control = 1) (Peptide_050 [39]): 0.51
signal (blank-control = 1) (Peptide_056 [40]): 0.99
signal (blank-control = 1) (Peptide_053 [41]): 1.41
B1: monoclonal antibody B264 (antibody, mouse IgG1, kappa, V domains shown)
VH: QVQLQQSGAELARPGASVKMSCKASGYTFTSYTMHWVKQRPGQGLEWIGYINPTSDYTNYNQKFKDKATLTADKSSSTAYMQLSSLTSEDSAVYFCASEGGFLYYFDYWGQGTTLTVSS
VL: DVLMTQTPLSLPVSLGDQASISCRSSQSIVHSNGNTYLEWYLQKPGQSPKLLIYKVSNRFSGVPDRFSGSGSGTDFTLKISRVEAEDLGVYYCFQGSHVPYTFGGGTKLEIKR
notes: also called AB264; B264 (Trx1-mIgG1)

signal (blank-control = 1) (Peptide_046 [1]): 2
signal (blank-control = 1) (Peptide_048 [2]): 5.99
signal (blank-control = 1) (Peptide_049 [3]): 1.45
signal (blank-control = 1) (Peptide_055 [4]): 1.04
signal (blank-control = 1) (Peptide_050 [5]): 0.65
signal (blank-control = 1) (Peptide_056 [6]): 1.24
signal (blank-control = 1) (Peptide_052 [7]): 1.38
signal (blank-control = 1) (Peptide_053 [8]): 1.66
signal (blank-control = 1) (Peptide_057 [9]): 1.94
signal (blank-control = 1) (Peptide_054 [10]): 0.84
signal (blank-control = 1) (Peptide_047 [11]): 1.58
Kd [12]: 0.21 nM
signal (blank-control = 1) (Peptide_046 [13]): 3.18
signal (blank-control = 1) (Peptide_048 [14]): 6
signal (blank-control = 1) (Peptide_049 [15]): 1.96
signal (blank-control = 1) (Peptide_055 [16]): 1.38
signal (blank-control = 1) (Peptide_050 [17]): 1.09
signal (blank-control = 1) (Peptide_056 [18]): 1.84
signal (blank-control = 1) (Peptide_052 [19]): 2.38
signal (blank-control = 1) (Peptide_053 [20]): 2.13
signal (blank-control = 1) (Peptide_057 [21]): 2.07
signal (blank-control = 1) (Peptide_054 [22]): 1.15
signal (blank-control = 1) (Peptide_047 [23]): 2.25
signal (blank-control = 1) (Peptide_046 [24]): 1.96
signal (blank-control = 1) (Peptide_048 [25]): 6.57
signal (blank-control = 1) (Peptide_049 [26]): 1.51
signal (blank-control = 1) (Peptide_055 [27]): 1.41
signal (blank-control = 1) (Peptide_050 [28]): 0.68
signal (blank-control = 1) (Peptide_056 [29]): 1.11
signal (blank-control = 1) (Peptide_052 [30]): 1.23
signal (blank-control = 1) (Peptide_053 [31]): 1.35
signal (blank-control = 1) (Peptide_057 [32]): 1.87
signal (blank-control = 1) (Peptide_054 [33]): 0.71
signal (blank-control = 1) (Peptide_047 [34]): 1.5
signal (blank-control = 1) (Peptide_046 [35]): 1.79
signal (blank-control = 1) (Peptide_048 [36]): 7.61
signal (blank-control = 1) (Peptide_049 [37]): 1.37
signal (blank-control = 1) (Peptide_055 [38]): 1.05
signal (blank-control = 1) (Peptide_050 [39]): 0.62
signal (blank-control = 1) (Peptide_056 [40]): 1.18
signal (blank-control = 1) (Peptide_053 [41]): 1.42
B2: monoclonal antibody B266-1 (antibody, human IgG1)
light: QIVLTQSPAIMSASPGEKVTMTCSASSRISYMYWYQQKPGTSPKRWIYDTSKLASGVPARFSGSGSGTSYSLTISTMEAEDAATYYCHQRSSYPTFGAGTKLELKSVAAPSVFIFPPSDEQLKSGTASVVCLLNNFYPREAKVQWKVDNALQSGNSQESVTEQDSKDSTYSLSSTLTLSKADYEKHKVYACEVTHQGLSSPVTKSFNRGEC
heavy: not shown
notes: B266 with the Fc part changed to human IgG1; also called B266-1 (Trx1-hIgG1); B266-1 (hTrx1-hIgG1)

— patent publication US20240192215A1 (E AND S HEALTHCARE, published 2024)
